Data on 34 sequences can be found in the NTF2 design screens of Basanta et al. (2020).

A short description of the series: protease stability score; higher = more stable; yeast display proteolysis, trypsin and chymotrypsin.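 Note: log10 excess protease needed over predicted unfolded state with 0 meaning unfolded.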
In turn, “DERVKQQVETLERAVKHNDEDRLKELMDPNVRVRVGDRTVEGREEIAKQLVRTNNESRIEQKIDRVDVRGDKVHIDFQRREHHDGKPDSAKFNVLVKASNGRISEMEVHTNQ” came in with a protease stability score of -0.248.
With “DEREAKKVVEDLKRGDWNKLMQLVDPNAKAVVGDKRVHGREQVQHMMQQFQDRIDHMEIRSVRVHNGRIEVDATFIFNGQSVRVIFHITVHNGRIQEIHVQATNEKVKHQLRKFLS”, the protease stability score stood at 1.07.
In the case of “EKEVVELAERFIDALQTNNPDQAEENVDENVKFQYGDKSIKGRDTWNRELKKTLRDQRIQFRHVEIRSDGDKAHITAEFQVTHNGQPDKRRYKMTVEVRNGTIQRVTVQQHR”, the protease stability score turned out to be 0.17.
With “DEERYKRLFEKVFKVVQNGNKDELKKLLAPNVEYNYVDKTYEGEEAAKAVVQLVKKVGAKAKQQKVEVKGDTATAHFQYENGDQRVETQAELHYEGDKVKKVQVKLTDEVKKVVHQG” the figure was 0.356; with “DDKQQMEEMLQKYQEALDTGDPEKLASLFDENAEVRIGDKVYRGHEDIKRAAKHLLDNVDHIEIRLRSLETRPGRIHARLQMNVRHNGKNTTKTLHVVARKQGDEFVVEHMEVE”, 2.07.
With “DEQEERDFNRNMVEILQQGDEEKARTNMDKDAHATYGDREYHGREQLADLLKEFRDRVDHIEMKDYSVTNGRVNVVFVAVFDGKRVELHADIQFRNGRIKRMTFKFRNEEQQKKLER” the figure was 0.361; with “DEEDLDRVESALRTNDPDTLSEMADKDVKVEYGDKSYQGRERFQHFIKQLAHQVDHVEVRSVDKRGDRLKATRVLVINGRSITVVVTIEARNGRIKMLEMSARNESQEKKLVELFQ”, 0.941.
“DEELAKIVLRLLQAEENGDERTLQENADPNVTINVGEKRIRGMETYAKEVTERRKRMRVEVDVKDYRNHGEHVVIVNTRLNESNGKPHRNRMQFVIHAHNGRITKISDNTDS”: the protease stability score was -0.009.
In turn, “DEKRVRRFAHKFIEVIERGDEHELRNLMDPDASMRVGDRTIHGRDEAARTIMKFLKRVDNLEVKSYDAQGDKVDIKVRASHDGKEHRITFDVKVHNGHIRHVTVKID” came in with a protease stability score of 2.64.
As for “DEEASKQLEEYLRALQTGDSHRVQQLLDPNAKARVGDHTYHGHKEILDWLNKLNEKMRFSIERLSVSVRGDQVEFSFKFDATFNGRPFHASQTMQINVHNGRLKKLTIQLDPEQLDTQRS”, the protease stability score was -0.088.
The sequence “DKDTEQHFADSMNQIIEQGNPKKAMKLADKDVQMQIGDKTYKGREEMMKQIKRFWKHVDEIRVKDVKVNDGQININVILDFNGKKVEVRIVIHVHNGKIHELRVDPKDKEQFEK” came in with a protease stability score of 1.09.
Sequence “DEEELSEVANNMERILREGDPDKARSLADENAKAHIGDKKYHGREQIREMIHRMRTRADKVTVNELRITNGVIKIVAEFNVNGRNIEIVVHIRVNNGKISEVNFEVRDPDQYKEIYS” registered a protease stability score of 0.386.
In the case of “DEEKVNERFFTKMKKAHEHGDPDQLRTLFDPNVKVRYGDKSITGRENVVKHIKKLLDEADSVSIQLKRVRVSGNKFSFDVVVSFNINGKHDNQRVIIVAEQHNGHARVKSVQQK” it was 0.949; in that of “DDHNVRVMREIQKAIEKNDEKRFKELVDPNVRVRIGDNLIHGRDNVAKELKREMDHMRKNIRSMSIDDEGDHVVINIEYEQNENGHPDTNRVQVSAELHNGKLKEMHISSRQ”, 1.02; in that of “DEDDMRRLEQLFRDIQTGNPERVRTLVDKNAELRVGDKRIKGREDVHRSVKKNRDEIRYSIDRLSADVKGDQVEMTVTAQKEHNGEPRSFKFTMTAKFRNGKLQHLDVHEEK”, -0.297.
In the case of “DEHAKDVFDTLREARKRGDEDTMKRQVDPNAKAQVGDKTYHGSDEIARRLTEENRESRVEYHTMSVEIQGDHVVVRFRARYEHNGQPSHFHAVEVVKADNGQIVFLVLQETK” it was 0.06; in that of “DDREQAQKFMDLFEDAIKDGDPRQAEELAPPDAKARYGDKKLTGMHDIARHFIDEVKRVDHHRVTYKDIKNEGNKFVFTFVYTFKHNGQSDDKQVRVEAENHNGRLLVTSIHDT”, 0.724; in that of “DEHVSRNFENMLRAIKSGNEEEIRELIDKNVRVQVGDKEIHGREEAVKDFKRRHEEIRFNLEVKRIEVRGNKVDVDAEASMTVNGKPYEWHVNIEVRARNGRIKYLNYRVPEEQVKKVES”, 0.177.
Sequence “DESVTEQANKMLDNIEKNNPEKVREQVDPNAKLQIGDKTLSGREHVQKQVEREMKDISVTRDLKSVNVRNGRAVFDMTVDFDVNGKPIHAHQVMEVQATNGRIKSVTYKIDTEELRKIDK” displayed a protease stability score of -0.499.
With “DEEQDARRIAELLDKVFRNNDEDQFMRLMDPNAEVVVGDKTYRGREQARSAMSEIVKHFDHVHLKLDSFSNHNGRVTASNTLHADSNGKKRKVKVTIHFDVKGDKAVIKHLTIE” the figure was 0.866; with “DEEAQELAERVFKALQTGDPDTLVKNMDPNVRLDVGDKKIQGREEAKKHADRLRHEQKVEYDSYEVRVHDGRVVVRLHWKFTVNGHPRTLTLTVEMKAHNGKVKHFSQRVPEDVLRKMKS”, -0.049.
In the case of “DNSVKKIVEEFWKAVKHGDPDKLRELADPNAKFDVGDKVLHGRDRAAKFLHDQHNNARFDITSLRIRVTNGRADIDVKLHVEHNGEPKTSSAKVIVRVRNGRMTELKIRERS” it was 0.637; in that of “DRNRRAEEFARTQLKAFKHGDEKLLRDLFDPNVHISVGDQTVHGRDEVARQEKDQATQVDHATRKIDRVEMNGDQVEVRARIRLNFNGQDRSTDVVYHATDDNGHIVVKSVRQG”, 0.017; in that of “DHQASEKLSQLWKALNTGNPEQFSKNADPHVRHHVGDTSIQGREQFNEQIKREQKEMRVQIQVQSIHVRGDKIRVRAVYTFHINGQPRKDTFVAKFVVKNGRIKKASIRIDPRKVKERNS”, 0.11.
“DERQENNARKFFTAYLKGDEHKLTELMRDDVRLKIGDKEIHGRETALKTIHTLRRRQRIHIQVDNIEVDENHVEVHAKIEWEHNGQPDSQKVRIDIKFHNGRINYLQMDLRG” came in with a protease stability score of 1.59.
With “DEENTKVAHEWLRNLERNDPKKLNELADPNAHFNVGDKQVQGMDEFERRIEDKKKEMRMKIDDYKARVHNGHVRVDVIVVIDHNGKPDKKRNVQFFDMENGRISRINQQDTG” the figure was -0.164; with “DEHTEKKRADEIKHAMRENDEKKLNDQMPPDVRMDVGDKQLHGRDEVIRHLQTQLRHADHVEIKHVEVTNGRVSIDAVFDVNGTRKRQVVVFVFHNGRAKEIHIEDK”, 0.861.
In turn, “EEEKLKKVAEEVFRMVQNGNYDQLAKLGKDNAEFQFADHRLKGKEQYKKYLEELVKRGVQFEVKKAQLKDNTVTMVTKAKYADTEATVTVQAKYEGGKLDRARVKLSEEVKKVLKKG” gave a protease stability score of 0.065.
On to “DEEKLRKDMEEAFRLVTQGNPEEFADRFRDNPRMHVGDKEYHGREEARKAITTLVKHIDRIELHHIDIQGDKAEVRYRATVNGKRADHVMRIEANNGQLQRASVDPDLVTSVLR”, for which the protease stability score is -0.347.
For the sequence “DDDNFRRFKDLQHAENRGDPDRVMELVDPNAHIRVGNTTLKGTKQIKDWVEHILKNWDEQLHSVDEKFQGNHITARYQMEINVNGEPEHFDVTQMATLDNGKIQNRVVRVSEDDLENIER”, the protease stability score is -0.247.
With “DEDLLRRAEQFIKAELRNNPDRAKELADPNVKFNIGDKEIHGMDDFRRYLHKKVKNMKWRAKVTHMKVQGNHAKLHVKVTLDINGRPFDVTRDILIVFHNGKIRDVNVRVDPEDKKRQKE” the figure was 1.39.
With “EEKLEEQVEELLKNLDTGDENRARQLADPNVRARVGDKEYHGMEQFIKDQMDQRRNARIEVKDLRSEHHGDKITVDLSYKAQHNGRPTTVQREVTFHAHNGKFRQMKIEQSG” the figure was -0.521; with “DEEVVKLLLELMKAWRTGDRDKAVKLMDPNVEIQVGDTYIHGREQNREEIKRIKDEIRWELSVKSYNQHNGQARIDADVTINVDGHPTHYRVDIRAEATNGEVKKITYNVPEEVLEEVKR”, 0.026.
With “DEDHRERLANHAVEAFQDGDPQQMEELADEDARAEVGDKELTGRERISKMVKTIADNVDHIELKSYEKTGDTVRFHMVLDDNGKQKRLVLVVRIHNGRLKELRIQQS” the figure was 1.53.
